The results in this text go back to the supplement of paper PMC10567573.

The labels stand for the following.
B1: HDAC6 (parent)
chain: YVHHQALLDVKNIAHQNKFGEDMP
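Also: lentivirally expressed fusions sorted by FACS into six bins by GFP to DsRed ratio, PSI derived from sequencing read proportions per bin multiplied by bin number.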

In the data set the parent is B1. The data set can be described thus: protein stability index of a GFP-peptide fusion (GPS, HEK-293T) (PSI 1-6); higher = more stable. Particulars: c terminus: a fixed tail appended.
With YVHHQALLDVKNIHHQNKFGEDMP [A14H], the protein stability index is 1.74. For YVHHQALLDVKNIFHQNKFGEDMP [A14F] the value was 1.52. The result for YVHHQALLDVKNIIHQNKFGEDMP [A14I] reads 2.12; that for YVHHQALLDVKNICHQNKFGEDMP [A14C], 3.38. For YVHHQALLDVKNILHQNKFGEDMP [A14L] the value was 1.9. Turning to YVHHQALLDVKNIEHQNKFGEDMP [A14E], the protein stability index came to 2.3.

For YVHHQALLDVKNIDHQNKFGEDMP [A14D], the protein stability index was determined as 2.

On to YVHHQALLDVKNIGHQNKFGEDMP [A14G], for which the protein stability index is 1.76. For YVHHQALLDVKNIKHQNKFGEDMP [A14K] the value was 2.33; for YVHHQALLRVKNIAHQNKFGEDMP [D9R], 1.65; for YVHHQALLPVKNIAHQNKFGEDMP [D9P], 4.3. YVHHQALLVVKNIAHQNKFGEDMP [D9V]: the protein stability index came to 1.25. The result for YVHHQALLQVKNIAHQNKFGEDMP [D9Q] reads 1.68; that for YVHHQALLNVKNIAHQNKFGEDMP [D9N], 2.66.

Regarding YVHHQALLWVKNIAHQNKFGEDMP [D9W], the protein stability index is 3.58.

As for YVHHQALLTVKNIAHQNKFGEDMP [D9T], the protein stability index amounted to 1.95. The result for YVHHQALLSVKNIAHQNKFGEDMP [D9S] reads 2.25; that for YVHHQALLYVKNIAHQNKFGEDMP [D9Y], 2.35; that for YVHHQALLDVSNIAHQNKFGEDMP [K11S], 2.74.

In the case of YVHHQALLDVVNIAHQNKFGEDMP [K11V], the protein stability index stood at 1.41. The result for YVHHQALLDVINIAHQNKFGEDMP [K11I] reads 2.09; that for YVHHQALLDVWNIAHQNKFGEDMP [K11W], 3.04. The result for YVHHQALLDVYNIAHQNKFGEDMP [K11Y] reads 2.77; that for YVHHQALLDVPNIAHQNKFGEDMP [K11P], 1.92. The result for YVHHQALLDVMNIAHQNKFGEDMP [K11M] reads 1.72. As to YVHHQALLDVGNIAHQNKFGEDMP [K11G], the protein stability index came out at 1.95. For YVHHQALLDVLNIAHQNKFGEDMP [K11L] the value was 1.27. For YVHHQALLDVFNIAHQNKFGEDMP [K11F] the value was 2.13. As to YVHHQALLDVNNIAHQNKFGEDMP [K11N], the protein stability index turned out to be 1.98. For the variant YVHHQALLDVHNIAHQNKFGEDMP [K11H], the protein stability index is 2.21. For YVHHQALLDVCNIAHQNKFGEDMP [K11C] the value was 1.54. Regarding YVHHQALLDVRNIAHQNKFGEDMP [K11R], the protein stability index was 2.08. For YVHHQALLDVTNIAHQNKFGEDMP [K11T] the value was 2.25; for YVHHQALLDVENIAHQNKFGEDMP [K11E], 2.24; for YVHHQALLDVQNIAHQNKFGEDMP [K11Q], 1.4. Take YVHHQALLDVANIAHQNKFGEDMP [K11A]: the protein stability index is 1.81. For YVHHQALLDVDNIAHQNKFGEDMP [K11D], the protein stability index is 2.18. For YVHHQALLDVKNQAHQNKFGEDMP [I13Q] the value was 1.92; for YVHHQALLDVKNVAHQNKFGEDMP [I13V], 2.31. For YVHHQALLDVKNSAHQNKFGEDMP [I13S] the value was 2.28; for YVHHQALLDVKNNAHQNKFGEDMP [I13N], 1.98. Turning to YVHHQALLDVKNKAHQNKFGEDMP [I13K], the protein stability index stood at 2. Take YVHHQALLDVKNLAHQNKFGEDMP [I13L]: the protein stability index amounted to 1.77.

Take YVHHQALLDVKNMAHQNKFGEDMP [I13M]: the protein stability index was found to be 2.47. For YVHHQALLDVKNGAHQNKFGEDMP [I13G] the value was 2.39; for YVHHQALLDVKNYAHQNKFGEDMP [I13Y], 1.95; for YVHHQALLDVKNEAHQNKFGEDMP [I13E], 2.27. For YVHHQALLDVKNHAHQNKFGEDMP [I13H] the value was 1.95; for YVHHQALLDVKNCAHQNKFGEDMP [I13C], 1.81; for YVHHQALLDVKNTAHQNKFGEDMP [I13T], 1.9.

Take YVHHQALLDVKNRAHQNKFGEDMP [I13R]: the protein stability index came out at 1.96. For the variant YVHHQALLDVKNDAHQNKFGEDMP [I13D], the protein stability index amounted to 2.77. For YVHHQALLDVKNPAHQNKFGEDMP [I13P] the value was 2.17.

Consider YVHHQALLDVKNFAHQNKFGEDMP [I13F], for which the protein stability index is 1.94. For YVHHQALLDVKNAAHQNKFGEDMP [I13A] the value was 2.18.

Consider YVHHQALLDVKNWAHQNKFGEDMP [I13W], for which the protein stability index is 2.16.

On to YVHHQALLDFKNIAHQNKFGEDMP [V10F], for which the protein stability index came out at 1.98. YVHHQALLDGKNIAHQNKFGEDMP [V10G]: the protein stability index was 2.02. The result for YVHHQALLDWKNIAHQNKFGEDMP [V10W] reads 2.37; that for YVHHQALLDRKNIAHQNKFGEDMP [V10R], 1.85. Take YVHHQALLDLKNIAHQNKFGEDMP [V10L]: the protein stability index is 1.9. In the case of YVHHQALLDDKNIAHQNKFGEDMP [V10D], the protein stability index was 2.74. The result for YVHHQALLDCKNIAHQNKFGEDMP [V10C] reads 2; that for YVHHQALLDAKNIAHQNKFGEDMP [V10A], 2.33; that for YVHHQALLDEKNIAHQNKFGEDMP [V10E], 2.5.

In the case of YVHHQALLDSKNIAHQNKFGEDMP [V10S], the protein stability index was found to be 1.84. For YVHHQALLDPKNIAHQNKFGEDMP [V10P] the value was 2.15; for YVHHQALLDIKNIAHQNKFGEDMP [V10I], 1.22. The result for YVHHQALLDKKNIAHQNKFGEDMP [V10K] reads 2.21; that for YVHHQALLDHKNIAHQNKFGEDMP [V10H], 2.14. For YVHHQALLDTKNIAHQNKFGEDMP [V10T] the value was 1.86; for YVHHQALLDNKNIAHQNKFGEDMP [V10N], 2.05; for YVHHQALLDYKNIAHQNKFGEDMP [V10Y], 1.62. As to YVHHQALLDQKNIAHQNKFGEDMP [V10Q], the protein stability index is 2.43. The result for YVHHQALLDMKNIAHQNKFGEDMP [V10M] reads 1.73; that for YVHHQALLDVKPIAHQNKFGEDMP [N12P], 2.12.

As for YVHHQALLDVKQIAHQNKFGEDMP [N12Q], the protein stability index was found to be 1.57. As to YVHHQALLDVKWIAHQNKFGEDMP [N12W], the protein stability index amounted to 2.64. For the variant YVHHQALLDVKIIAHQNKFGEDMP [N12I], the protein stability index amounted to 2.4. Turning to YVHHQALLDVKTIAHQNKFGEDMP [N12T], the protein stability index worked out at 2.09.

Consider YVHHQALLDVKMIAHQNKFGEDMP [N12M], for which the protein stability index came out at 1.87. For YVHHQALLDVKHIAHQNKFGEDMP [N12H], the protein stability index came to 1.72.

As to YVHHQALLDVKVIAHQNKFGEDMP [N12V], the protein stability index was 1.54.

YVHHQALLDVKKIAHQNKFGEDMP [N12K]: the protein stability index was found to be 2.18. For YVHHQALLDVKSIAHQNKFGEDMP [N12S] the value was 2.09; for YVHHQALLDVKGIAHQNKFGEDMP [N12G], 2.71; for YVHHQALLDVKDIAHQNKFGEDMP [N12D], 1.67. The result for YVHHQALLDVKYIAHQNKFGEDMP [N12Y] reads 3.4; that for YVHHQALLDVKAIAHQNKFGEDMP [N12A], 2.

For YVHHQALLDVKCIAHQNKFGEDMP [N12C], the protein stability index was 1.42. For YVHHQALLDVKLIAHQNKFGEDMP [N12L] the value was 1.93. Take YVHHQALLDVKRIAHQNKFGEDMP [N12R]: the protein stability index turned out to be 2.36.

YVHHQALLDVKEIAHQNKFGEDMP [N12E]: the protein stability index is 1.66. For YVHHQALLDVKFIAHQNKFGEDMP [N12F] the value was 2.65.
